The results in this text go back to patent publication US20250154283A1 (published 2025).

In the assay the target is T1, biotinylated human VWF cysteine knot (CK) domain construct (human, biotin on the in vitro biotinylation tag (residue not stated); one N-glycan).
T1 construct: Disulfide-linked homodimer; also called biotinylated human VWF CK domain; human VWF CK domain construct
T1 chain: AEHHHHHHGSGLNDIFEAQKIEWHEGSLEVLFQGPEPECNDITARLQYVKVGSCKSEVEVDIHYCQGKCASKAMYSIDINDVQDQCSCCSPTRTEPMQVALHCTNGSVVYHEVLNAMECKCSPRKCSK
In words: SPR, scFv captured on anti-SV5, pH 7.4.

B1: Lib1_P1_D1_scFv (scFv, not shown: small tags and cut ends)
scFv: QVQLVQSGAEVKKPGASVKVSCKVSGDTFTDRYIHWVRQAPGKGLEWMGGINTIFGTAIYAQKFQGRVTMTEDTSTDTAYMELSSLKSEDTAVYYCAREGATVSTNFDYWGQGTLVTVSSSGGSTITSYNVYYTKLSSSGTDIQMTQSPSSVSASVGDRVTITCRASQDIRKSLAWYQQKPGKAPKLLIYDISNRPSGVPSRFSGSGSGTDFTLTISSLQPEDFANYYCQQGYSAPYGFGGGTKVEIK
For the molecule B1, the binding result is “binds”.

B2: 9621_Lib8_scFv (scFv, not shown: small tags and cut ends)
scFv: EVQLVESGGGLVQPGRSLRLSCAASGFSFSMYAMHWVRQAPGKGLEWVSAISPSGDATDYADSVEGRFTISRDNAKNSLYLQMNSLRAEDTAVYYCARGMQDYGHYYYYYMDVWGKGTTVTVSSSGGSTITSYNVYYTKLSSSGTDIQMTQSPSSLSASVGDRVTITCRASQDISTSLAWYQQKPGKAPKLLIYGASSLETGVPSRFSGSGSGTDFTLTISSLQPEDVATYYCQQGYIAPRTFGGGTKVEIK
For the molecule B2, the binding result is listed as “binds”.

B3: 1374_Lib8_scFv (scFv, not shown: small tags and cut ends)
scFv: EVQLVESGGGLVQPGRSLRLSCAASGVDFSTYAMHWVRQAPGKGLEWVSAISSSGAYTDYADSVEGRFTISRDNAKNSLYLQMNSLRAEDTAVYYCATDRGPFSGYGTQGWFDPWGQGTLVTVSSSGGSTITSYNVYYTKLSSSGTDIQMTQSPSSLSASVGDRVTITCRASQTIRSYLAWYQQKPGKAPKLLIYGASDLQSGVPSRFSGSGSGTDFTLTISSLQPEDVATYYCQQYANFPITFGGGTKVEIK
As for B3, the binding result is recorded as “binds”.

B4: 1405_Lib8_scFv (scFv, not shown: small tags and cut ends)
scFv: EVQLVESGGGLVQPGRSLRLSCAASGVDFSTYAMHWVRQAPGKGLEWVSAISSSGAYTDYADSVEGRFTISRDNAKNSLYLQMNSLRAEDTAVYYCATDRGPFSGYGTQGWFDPWGQGTLVTVSSSGGSTITSYNVYYTKLSSSGTDIQMTQSPSSLSASVGDRVTITCRASRDITSYLAWYQQKPGKAPKLLIYHASTLEAGVPSRFSGSGSGTDFTLTISSLQPEDVATYYCQQYGDFPPTFGGGTKVEIK
Take B4: the binding result is “binds”.

B5: Lib1_P1_C6_scFv (scFv, not shown: small tags and cut ends)
scFv: QVQLVQSGAEVKKPGASVKVSCKVSGYTFASHYIHWVRQAPGKGLEWMGGMDPATGQTIYAQKFQGRVTMTEDTSTDTAYMELSSLKSEDTAVYYCAKGDRSSWYEVLSFQHWGQGTLVTVSSSGGSTITSYNVYYTKLSSSGTDIQMTQSPSSVSASVGDRVTITCRASQGISTDLAWYQQKPGKAPKLLIYDASILQRGVPSRFSGSGSGTDFTLTISSLQPEDFANYYCQQVRTYPFTFGGGTKVEIK
Regarding B5, the binding result is reported as “binds”.

B6: Lib4_P2_H3_scFv (scFv, not shown: small tags and cut ends)
scFv: QVQLQESGPGLVKPSQTLSLTCTVSGSTFGDYAWSWIRQPPGKGLEWIGYINHIGNADYNPSLKSRVTMSVDTSKNQFSLKVNSVTAADTAVYYCARDGVESPEVPNYYYYGMDVWGQGTTVTVSSSGGSTITSYNVYYTKLSSSGTEIVMTQSPATLSLSPGERATLSCRASHSIGSNLAWYQQKPGQAPRLLIYDATNRAPGIPARFSGSGSGTDFTLTISSLEPEDFAVYYCQQSYTNPTFGGGTKVEIK
With B6, the binding result is listed as “binds”.

B7: 4142_Lib1_scFv (scFv, not shown: small tags and cut ends)
scFv: QVQLVQSGAEVKKPGASVKVSCKVSGYPFTSSGIHWVRQAPGKGLEWMGGVIPLFGTANYAQKFQGRVTMTEDTSTDTAYMELSSLKSEDTAVYYCARIRVSSGWYRDYGMDVWGQGTTVTVSSSGGSTITSYNVYYTKLSSSGTDIQMTQSPSSVSASVGDRVTITCRASQDITNDLAWYQQKPGKAPKLLIYDASRLQSGVPSRFSGSGSGTDFTLTISSLQPEDFANYYCQQTFTTPLTFGGGTKVEIK
Take B7: the binding result was “binds”.

B8: 4029_Lib1_scFv (scFv, not shown: small tags and cut ends)
scFv: QVQLVQSGAEVKKPGASVKVSCKVSGYPFTSSGIHWVRQAPGKGLEWMGGVIPLFGTANYAQKFQGRVTMTEDTSTDTAYMELSSLKSEDTAVYYCARIRVSSGWYRDYGMDVWGQGTTVTVSSSGGSTITSYNVYYTKLSSSGTDIQMTQSPSSVSASVGDRVTITCRASQSIGDFLAWYQQKPGKAPKLLIYDASHLQTGVPSRFSGSGSGTDFTLTISSLQPEDFANYYCQQTSTIPPTFGGGTKVEIK
In the case of B8, the binding result is on record as “binds”.

B9: 8226_Lib8_scFv (scFv, not shown: small tags and cut ends)
scFv: EVQLVESGGGLVQPGRSLRLSCAASGFNFHNYDMHWVRQAPGKGLEWVSAISGGAVSTDYADSVEGRFTISRDNAKNSLYLQMNSLRAEDTAVYYCARSSWYGGQIDFWGQGTLVTVSSSGGSTITSYNVYYTKLSSSGTDIQMTQSPSSLSASVGDRVTITCRASQDISGWLAWYQQKPGKAPKLLIYAASSLQDGVPSRFSGSGSGTDFTLTISSLQPEDVATYYCQQSYRIPSTFGGGTKVEIK
In the case of B9, the binding result is listed as “binds”.

B10: 1081_Lib8_scFv (scFv, not shown: small tags and cut ends)
scFv: EVQLVESGGGLVQPGRSLRLSCAASGFNFHNYDMHWVRQAPGKGLEWVSAISGGAVSTDYADSVEGRFTISRDNAKNSLYLQMNSLRAEDTAVYYCARSSWYGGQIDFWGQGTLVTVSSSGGSTITSYNVYYTKLSSSGTDIQMTQSPSSLSASVGDRVTITCRASESVSSWLAWYQQKPGKAPKLLIYGASTLEGGVPSRFSGSGSGTDFTLTISSLQPEDVATYYCQQAYRTPVTFGGGTKVEIK
Take B10: the binding result is “binds”.

B11: Lib8_P4_C10_scFv (scFv, not shown: small tags and cut ends)
scFv: EVQLVESGGGLVQPGRSLRLSCAASGFNFHNYDMHWVRQAPGKGLEWVSAISGSSDTMDYADSVEGRFTISRDNAKNSLYLQMNSLRAEDTAVYYCVRASWYGTFFDYWGQGTLVTVSSSGGSTITSYNVYYTKLSSSGTDIQMTQSPSSLSASVGDRVTITCRASQDISGWLAWYQQKPGKAPKLLIYAASSLQDGVPSRFSGSGSGTDFTLTISSLQPEDVATYYCQQSYRIPSTFGGGTKVEIK
For the molecule B11, the binding result is listed as “binds”.

B12: Lib1_P1_E9_scFv (scFv, not shown: small tags and cut ends)
scFv: QVQLVQSGAEVKKPGASVKVSCKVSGYTFTSHIIHWVRQAPGKGLEWMGGMNPYSNKAIYAQKFQGRVTMTEDTSTDTAYMELSSLKSEDTAVYYCARDASDYGDYGYYYYYMDVWGKGTTVTVSSSGGSTITSYNVYYTKLSSSGTDIQMTQSPSSVSASVGDRVTITCRASQYIGNDLAWYQQKPGKAPKLLIYEASQRPSGVPSRFSGSGSGTDFTLTISSLQPEDFANYYCQQQYNYPLTFGGGTKVEIK
For the molecule B12, the binding result is “binds”.

B13: Lib4_P2_A5_scFv (scFv, not shown: small tags and cut ends)
scFv: QVQLQESGPGLVKPSQTLSLTCTVSGSSISSSSDYWSWIRQPPGKGLEWIGYIDISGDADYNPSLKSRVTMSVDTSKNQFSLKVNSVTAADTAVYYCARHLSSGWYGTYYFDYWGQGTLVTVSSSGGSTITSYNVYYTKLSSSGTEIVMTQSPATLSLSPGERATLSCRASQNIHSNLAWYQQKPGQAPRLLIYDASSRATGIPARFSGSGSGTDFTLTISSLEPEDFAVYYCQQGYTKPLTFGGGTKVEIK
B13: the binding result is on record as “binds”.

B14: 9301_Lib8_scFv (scFv, not shown: small tags and cut ends)
scFv: EVQLVESGGGLVQPGRSLRLSCAASGFNFHNYDMHWVRQAPGKGLEWVSAISGSGYTADYADSVEGRFTISRDNAKNSLYLQMNSLRAEDTAVYYCAKSHSSGWSSAFDIWGQGTMVTVSSSGGSTITSYNVYYTKLSSSGTDIQMTQSPSSLSASVGDRVTITCRASQTIGYWLAWYQQKPGKAPKLLIYDASVPESGVPSRFSGSGSGTDFTLTISSLQPEDVATYYCQQTLSSPWTFGGGTKVEIK
For B14, the binding result is “binds”.
